Source: patent publication US6015555, “Transferrin receptor specific antibody-neuropharmaceutical or diagnostic agent conjugates” (Alkermes, Inc., dated 2000)

Key:
rat transferrin receptor [1] = target: T1, rat transferrin receptor (rat, UniProt Q99376)
rat transferrin receptor [2] = target: T1, rat transferrin receptor; remark: listed apart in the source
rat transferrin receptor [3] = target: T1, rat transferrin receptor; remark: listed apart in the source
[4] = target: transferrin receptor on monkey (cynomolgous) brain capillaries (monkey (cynomolgous))
rat transferrin receptor [5] = target: T1, rat transferrin receptor; assay: immunohistochemistry on rat brain sections (brain capillary endothelial cells)
Source text: Biodistribution and Brain Uptake of Anti-Human Transferrin Receptor Antibodies in Cynomolgous Monkeys A collection of 32 murine monoclonal antibodies which recognize various epitopes on the human transferrin receptor were examined for reactivity with brain capillary endothelial cells in sections from human, monkey (cynomolgous), rat and rabbit brain samples by the immunohistochemical methods described in Example 1. These antibodies were obtained from Dr. Ian Trowbridge of the Salk Institute, LaJolla, Calif. […] Two antibodies reacted very weakly with rabbit brain capillaries and none reacted with rat. […] These 2 antibodies are herewithin referred to as 128.1 and Z35.2.

OX-26 murine monoclonal antibody
percent of the injected dose of 14C-labelled antibody in the brain (% of the injected dose) (rat transferrin receptor [1]): 0.9 | distribution of radiolabelled antibody between brain capillary fraction and parenchyma fraction (capillary depletion) (rat transferrin receptor [2]): 0.36 % ID

OX-26-methotrexate (MTX) conjugate linked via a gamma-hydrazid (antibody)
distribution of 3H-MTX label between brain capillary fraction and parenchyma fraction (capillary depletion) (rat transferrin receptor [3]): 4.5 fold

B1: murine monoclonal antibody 128.1 (antibody, V domains shown)
VH: EVQLQQSGPELVKPGASMKISCKASGYSFTGYTMNWVKQSHGENLEWIGRINPHNGGTDYNQKFKDKAPLTVDKSSNTAYMELLSLTSGDSAVYYCARGYYYYSLDYWGQGTSVTVSS
VL: QIVLTQSPAIMSVSPGEKVTMTCSASSSIRYIHWYQQRPGTSPKRWIYDTSNLASGVPARFSGSGSGTSYSLTISSMEAEDAATYYCHQRNSYPWTFGGGTRLEIR
share of 14C-labelled antibody in the brain parenchyma (capillary depletion) 24 hours after injection into a cynomolgous monkey [4]: 90% | binding result (rat transferrin receptor [5]): no binding
